# From article PMC6349121, “Structural insights into non-covalent ubiquitin activation of the cIAP1-UbcH5B∼ubiquitin complex” (The Journal of Biological Chemistry, 2018)
# B1: GST-cIAP1R (cIAP1 RING domain, residues 556-C, with GST) (domain or fragment, human, UniProt Q13490 556-618, looked up)
# chain: LSLEEQLRRLQEERTCKVCMDKEVSVVFIPCGHLVVCQECAPSLRKCPICRGIIKGTVRTFLS
# notes: pGEX4T1 with a TEV site after GST; the tag is not cleaved in this form; source: E. coli BL21 (DE3) Gold; not shown: GST, N-terminal, kept
# B2: cIAP1 RING domain (residues 556-C; cIAP1R) (domain or fragment, human, UniProt Q13490 556-618, looked up)
# chain: B1 chain
# notes: Homodimer through the RING domain; in the crystal the dimer is generated by crystallographic symmetry; also called cIAP1 RING dimer; not shown: GST, N-terminal, cleaved
# Tests used:
# [1] = target: T1, UbcH5B S22R C85K covalently linked to Ub (UbcH5B_(S22R)–Ub) (human, UniProt P62837 1-147; P0CG47 1-76, S22R | C85K, Lys85 (C85K) in a stable amide linkage to Ub | covalently linked to Lys85 of UbcH5B S22R C85K (amide linkage)); assay: SPR; as a1, but UbcH5B–Ub variants diluted in running buffer containing 0.6 mM UbΔGG; GST-cIAP1R coupled to a CM-5 chip, 25 °C; steady-state affinity analysis; conditions: both partners purified
# T1 construct: UbcH5B, human Ub-conjugating enzyme (E2); ubiquitin (Ub), human, donor Ub; source: E. coli BL21 (DE3) Gold
# [2] = target: T2, UbcH5B (human, UniProt P62837 1-147); assay: SPR; GST-cIAP1R coupled to a CM-5 chip, Biacore T200, 25 °C; analytes diluted in 25 mM Tris-HCl pH 7.6, 150 mM NaCl, 0.1 mg/ml BSA, 1 mM DTT, 0.005% Tween 20; GST alone subtracted; steady-state affinity analysis; conditions: both partners purified
# T2 construct: UbcH5B, human Ub-conjugating enzyme (E2), untagged; also called UbcH5B WT
# [3] = target: T3, UbcH5B C85K covalently linked to Ub (UbcH5B–Ub) (human, UniProt P62837 1-147; P0CG47 1-76, C85K, Lys85 (C85K) in a stable amide linkage to Ub | covalently linked to Lys85 of UbcH5B C85K (amide linkage)); assay: as above; conditions: both partners purified
# T3 construct: UbcH5B, human Ub-conjugating enzyme (E2); ubiquitin (Ub), human, donor Ub (Ub^D); the model of 6HPR holds residues 1-76; source: E. coli BL21 (DE3) Gold
# [4] = target: T1, UbcH5B S22R C85K covalently linked to …; assay: as above; conditions: both partners purified
# [5] = target: T4, ubiquitin (Ub) (human, UniProt P0CG47 1-76); assay: crystal structure; cIAP1R, UbcH5B–Ub and Ub mixed at 1:1:1.2 molar ratio; sitting drop, 0.2 M ammonium fluoride, 15% PEG 3350, 19 °C; 1.7 Å; dimer generated by crystallographic symmetry; conditions: both partners purified
# T4 construct: ubiquitin (Ub), human; in the model of 6HPR Ub^B is chain B (residues 1-74 seen) and Ub^D chain D (residues 1-76); Free Ub was mixed into the crystallised complex as Ub^B; in the rows on Ub^D it stands for the Ub part of the conjugate m4; also called WT Ub
# [6] = target: the molecule itself; assay: as above
Binder,Kd [1] [nM],Kd [2] [µM],Kd [3] [nM],Kd [4] [nM],binding result [5],binding result [6]
B1,990 ± 50,223 ± 4,830 ± 50,900 ± 10,,
B2,,,,,binds,binds
